Measurements from the supplement of paper PMC6757056.
± gives the standard deviation of the averaged measurements.

B1: library; a variant is named by its letters at N, in order (parent)
chain: GCUGUCACCGGUGUAUUACCCUAGUGGUCGACCGGUCUGAUGAGUCUNNNNNNAGACGAAACAGC

How the values were obtained:
hypoxanthine [1] = variants of: B1; experiment: FACS-Seq fitted mean relative fluorescence mCherry/BFP without ligand (log10 relative fluorescence); ligand: hypoxanthine (xanthine aptamer); higher = higher reporter protein expression; details: HEK293T, ligand present: no
How it was run: (§1)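 HEK293T libraries were made by lentiviral transduction with a ribozyme-switch mCherry reporter and an EF1α-BFP marker, enriched, and incubated with or without ligand for 48 h. Cells were sorted into 6 mCherry/BFP bins, and each bin's genomic DNA was PCR-amplified, barcoded and run on MiSeq. Fluorescence was derived by normal fitting of the bin counts. The fitted log10(mCherry/BFP) mean was scaled to five spiked-in control ribozymes.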

hypoxanthine [2] = variants of: B1; experiment: normalized RNA/DNA level with ligand (relative to sTRSVctl = 100) (log10 (% of sTRSVctl)); ligand: hypoxanthine (xanthine aptamer); higher = less ribozyme self-cleavage, higher mRNA level; details: ligand concentration (+) RNA-Seq: 5 mM, HEK293T, reporter: mCherry (pCS4076), ligand present: yes
How it was run: (§2)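 Ribozyme switch library plasmids linked to reporters were introduced into HEK293T cells at 4 µg per 6-well well, with ligand, if any, added 1 h before. Total RNA was extracted with EDTA 72 h later, reverse-transcribed, amplified, barcoded and sequenced. RNA level was computed from RNA over DNA reads relative to a spiked-in non-cleaving sequence or the top sequences, then scaled and log-transformed. The top set was 25 sequences, values were ×100 and log10, and the cutoff was ≥100 DNA reads.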

hypoxanthine [3] = variants of: B1; experiment: normalized RNA/DNA level without ligand (relative to sTRSVctl = 100) (log10 (% of sTRSVctl)); ligand: hypoxanthine (xanthine aptamer); higher = less ribozyme self-cleavage, higher mRNA level; details: HEK293T, reporter: mCherry (pCS4076), ligand present: no
How it was run: as §2

hypoxanthine [4] = variants of: B1; experiment: FACS-Seq fitted mean relative fluorescence mCherry/BFP with ligand (log10 relative fluorescence); ligand: hypoxanthine (xanthine aptamer); ligand concentration (+) FACS-Seq: 5 mM; higher = higher reporter protein expression; details: HEK293T, ligand present: yes
How it was run: as §1

Row | Variant | FACS-Seq fitted mean (log10) (hypoxanthine [1]) | normalized RNA/DNA level with ligand (log10) (hypoxanthine [2]) | normalized RNA/DNA level without ligand (log10) (hypoxanthine [3]) | FACS-Seq fitted mean (log10) (hypoxanthine [4])
1 | GCUGUCACCGGUGUAUUACCCUAGUGGUCGACCGGUCUGAUGAGUCUCGAUAAAGACGAAACAGC [CGAUAA] | 0.668 ± 0.13 | 1.86 ± 0.047 | 1.57 ± 0.022 | 0.637 ± 0.12
2 | GCUGUCACCGGUGUAUUACCCUAGUGGUCGACCGGUCUGAUGAGUCUCGAUACAGACGAAACAGC [CGAUAC] | -0.0585 ± 0.029 | 1.894 ± 0.0067 | 1.69 ± 0.019 | 0.176 ± 0.056
3 | GCUGUCACCGGUGUAUUACCCUAGUGGUCGACCGGUCUGAUGAGUCUAGAGGUAGACGAAACAGC [AGAGGU] | 0.557 ± 0.061 | 1.9 ± 0.035 | 1.52 ± 0.032 | 0.802 ± 0.07
4 | GCUGUCACCGGUGUAUUACCCUAGUGGUCGACCGGUCUGAUGAGUCUAGAGGAAGACGAAACAGC [AGAGGA] | 0.5707 ± 0.0052 | 1.892 ± 0.016 | 1.6297 ± 0.00023 | 0.701 ± 0.028
5 | GCUGUCACCGGUGUAUUACCCUAGUGGUCGACCGGUCUGAUGAGUCUCGAGGUAGACGAAACAGC [CGAGGU] | 0.491 ± 0.077 | 1.96 ± 0.027 | 1.86 ± 0.019 | 0.625 ± 0.12
6 | GCUGUCACCGGUGUAUUACCCUAGUGGUCGACCGGUCUGAUGAGUCUCGAGGGAGACGAAACAGC [CGAGGG] | -0.0981 ± 0.041 | 1.8 ± 0.077 | 1.3 ± 0.047 | 0.0226 ± 0.19
7 | GCUGUCACCGGUGUAUUACCCUAGUGGUCGACCGGUCUGAUGAGUCUAGAGUAAGACGAAACAGC [AGAGUA] | 0.5286 ± 0.0017 | 1.892 ± 0.0036 | 1.7 ± 0.034 | 0.675 ± 0.034
8 | GCUGUCACCGGUGUAUUACCCUAGUGGUCGACCGGUCUGAUGAGUCUGGAUACAGACGAAACAGC [GGAUAC] | 0.616 ± 0.019 | 1.93 ± 0.026 | 1.73 ± 0.042 | 0.623 ± 0.084
9 | GCUGUCACCGGUGUAUUACCCUAGUGGUCGACCGGUCUGAUGAGUCUGGAUAAAGACGAAACAGC [GGAUAA] | 0.5354 ± 0.0025 | 1.9 ± 0.025 | 1.74 ± 0.024 | 0.552 ± 0.016
10 | GCUGUCACCGGUGUAUUACCCUAGUGGUCGACCGGUCUGAUGAGUCUGGAGUGAGACGAAACAGC [GGAGUG] | 0.301 ± 0.025 | 1.85 ± 0.027 | 1.413 ± 0.014 | 0.7 ± 0.032
11 | GCUGUCACCGGUGUAUUACCCUAGUGGUCGACCGGUCUGAUGAGUCUGGAGUCAGACGAAACAGC [GGAGUC] | 0.764 ± 0.047 | 1.93 ± 0.042 | 1.885 ± 0.014 | 0.567 ± 0.047
12 | GCUGUCACCGGUGUAUUACCCUAGUGGUCGACCGGUCUGAUGAGUCUAGAUACAGACGAAACAGC [AGAUAC] | 0.757 ± 0.025 | 1.91 ± 0.052 | 1.74 ± 0.029 | 0.699 ± 0.065
13 | GCUGUCACCGGUGUAUUACCCUAGUGGUCGACCGGUCUGAUGAGUCUAGAUAAAGACGAAACAGC [AGAUAA] | 0.265 ± 0.036 | 1.88 ± 0.022 | 1.75 ± 0.042 | -0.0706 ± 0.047
14 | GCUGUCACCGGUGUAUUACCCUAGUGGUCGACCGGUCUGAUGAGUCUUGAGGAAGACGAAACAGC [UGAGGA] | 0.402 ± 0.033 | 1.885 ± 0.015 | 1.5 ± 0.056 | 0.633 ± 0.061
15 | GCUGUCACCGGUGUAUUACCCUAGUGGUCGACCGGUCUGAUGAGUCUCGAGUCAGACGAAACAGC [CGAGUC] | 0.0141 ± 0.11 | 1.958 ± 0.016 | 1.91 ± 0.094 | 0.106 ± 0.053
16 | GCUGUCACCGGUGUAUUACCCUAGUGGUCGACCGGUCUGAUGAGUCUCGAGUUAGACGAAACAGC [CGAGUU] | 0.866 ± 0.02 | 2 ± 0.039 | 1.834 ± 0.015 | 0.833 ± 0.11
17 | GCUGUCACCGGUGUAUUACCCUAGUGGUCGACCGGUCUGAUGAGUCUGGAGGUAGACGAAACAGC [GGAGGU] | 0.54 ± 0.019 | 1.923 ± 0.013 | 1.779 ± 0.01 | 0.48 ± 0.021
18 | GCUGUCACCGGUGUAUUACCCUAGUGGUCGACCGGUCUGAUGAGUCUGGAGGAAGACGAAACAGC [GGAGGA] | -0.168 ± 0.034 | 1.934 ± 0.0025 | 1.64 ± 0.078 | 0.231 ± 0.0056
19 | GCUGUCACCGGUGUAUUACCCUAGUGGUCGACCGGUCUGAUGAGUCUUGAGCUAGACGAAACAGC [UGAGCU] | 0.136 ± 0.16 | 1.918 ± 0.018 | 1.904 ± 0.017 | -0.0419 ± 0.064
20 | GCUGUCACCGGUGUAUUACCCUAGUGGUCGACCGGUCUGAUGAGUCUUGAGUGAGACGAAACAGC [UGAGUG] | 0.274 ± 0.026 | 1.9 ± 0.0079 | 1.64 ± 0.047 | 0.263 ± 0.019
21 | GCUGUCACCGGUGUAUUACCCUAGUGGUCGACCGGUCUGAUGAGUCUUGAGUCAGACGAAACAGC [UGAGUC] | 0.177 ± 0.08 | 1.99 ± 0.004 | 1.97 ± 0.025 | -0.0516 ± 0.012
